From publication PMC12203670 come the findings set out here.

Several values for one entry are separate records, joined by “and”; a condition that tells them apart may be missing. Equal entries are not always repeated.

The target of the test is PKM2 (pyruvate kinase M2), endogenous in mouse heart (mouse (endogenous in heart)) (UniProt P52480). As to the kind of experiment: cross-linking; cross-linking of cardiac PKM2, Western blot of monomer, dimer and tetramer; hearts of Ctrl and cKO mice after 3-h reperfusion, with TEPP-46 or vehicle, or with Ad-Mtx2.

PKM2 (pyruvate kinase M2), endogenous in mouse heart, P52480 1-531 (enzyme; other documents disagree on this pair), sequence (P52480 whole entry): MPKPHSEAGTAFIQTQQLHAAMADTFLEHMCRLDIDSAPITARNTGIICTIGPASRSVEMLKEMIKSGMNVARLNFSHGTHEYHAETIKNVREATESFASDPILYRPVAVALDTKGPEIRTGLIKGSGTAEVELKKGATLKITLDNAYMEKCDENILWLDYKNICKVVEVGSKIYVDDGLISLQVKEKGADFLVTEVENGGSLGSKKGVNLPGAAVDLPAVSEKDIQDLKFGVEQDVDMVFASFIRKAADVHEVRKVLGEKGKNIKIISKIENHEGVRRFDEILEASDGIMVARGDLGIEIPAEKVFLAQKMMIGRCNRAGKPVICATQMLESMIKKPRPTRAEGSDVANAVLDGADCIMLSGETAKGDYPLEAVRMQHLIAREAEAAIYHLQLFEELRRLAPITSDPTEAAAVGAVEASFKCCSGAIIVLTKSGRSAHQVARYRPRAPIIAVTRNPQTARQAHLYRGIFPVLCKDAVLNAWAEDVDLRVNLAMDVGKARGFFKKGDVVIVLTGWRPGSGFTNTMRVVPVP

As usually defined, the stoichiometry N is a count of units in the complex or per binding partner. On to “PKM2 (pyruvate kinase M2), endogenous in mouse heart, P52480 1-531 (enzyme; other documents disagree on this pair)”, for which the stoichiometry N is 4 and 2.
